These results are taken from article PMC7933334, “The methyltransferase SETD2 couples transcription and splicing by engaging mRNA processing factors through its SHI domain” (Nature Communications, 2021).

The target of this experiment is T1, GST-His-hnRNP L RRM2 (162–321) (human, UniProt P14866 162-321).
T1 construct: bait of the GST pull-down; source: E. coli Rosetta 2 (DE3) pLysS, purified (glutathione magnetic beads)
T1 sequence (looked up): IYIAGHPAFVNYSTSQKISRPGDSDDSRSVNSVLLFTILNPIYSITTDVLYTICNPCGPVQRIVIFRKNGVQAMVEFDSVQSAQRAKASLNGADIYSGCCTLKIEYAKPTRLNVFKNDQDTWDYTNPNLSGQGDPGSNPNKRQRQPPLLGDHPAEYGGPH
Briefly: pull-down; GST pull-down with recombinant proteins purified from bacteria; GST-His-hnRNP L segments as baits, FLAG-SETD2 fragments as preys; RNase included in the binding assay; western blot with anti-His and anti-FLAG. Particulars: both partners purified. In general terms: In western blotting, separated proteins are transferred to a membrane and probed.

B1: FLAG-SETD2 SHI (2114–2263) (domain or fragment, human, UniProt Q9BYW2 2114-2263, looked up)
chain: NKLSTEERRKLFEQEVAQREAQKQQQQMQNLGMTSPLPYDSLGYNAPHHPFAGYPPGYPMQAYVDPSNPNAGKVLLPTPSMDPVCSPAPYDHAQPLVGHSTEPLSAPPPVPVVPHVAAPVEVSSSQYVAQSDGVVHQDSSVAVLPVPAPG
notes: The methods say that proteins were eluted with either glutathione or AcTEV protease; source: E. coli Rosetta 2 (DE3) pLysS, purified (glutathione magnetic beads)
Consider B1, for which the binding result is on record as “binds”.
